To fix the notation:
B1: S0042 (antibody, V domains shown)
VH: QVQLVQSGTEVKKPGASVKVSCKVSGYTLSDLSIHWVRQAPGKGLEWMGGFEPEDGEIIYAQKFQGRVIMTEDTSTDTAYMKLSSLRSEDTAVYYCATDKRYFDWLLSGFDYWGQGTLVTVSS
VL: DIQLTQSPSFLSASVGDRVTITCRASQGISSYLAWYQQKPGKAPKLLIFAASTLQSGVPSRFSGSGSGTEFTLTISSLQPEDFATYYCQRLHSYPRTFGQGTKVEIKRA
notes: human variable domains with mouse constant regions (Trianni mouse hybridoma)
B2: S0102 (antibody, V domains shown)
VH: QVQLVESGGGVVQPGRSLRLSCAASGFTFSSYGMHWVRQAPGKGLEWVAVISYDGSNKYYTDSVKGRFTISRDNSKNTLYLQMNSLRAEDTAVYYCARGGYYGSGSLDYWGQGTLVTVSS
VL: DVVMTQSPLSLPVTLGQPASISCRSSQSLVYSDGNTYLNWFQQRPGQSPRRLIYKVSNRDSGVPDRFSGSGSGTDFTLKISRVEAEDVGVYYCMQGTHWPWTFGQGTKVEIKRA
notes: human variable domains with mouse constant regions (Trianni mouse hybridoma); also called S0102 anti-Siglec12 antibody
B3: S0057 (antibody, V domains shown)
VH: QGQLVQSGAEVKKPGASVKVSCKASGYTFNNYGISWVRQAPGQGLEWMGWISAYNGFTRSTQKFQGRVTLTTDTSTSTAHMELRSLRSDDTAAYYCARDGGDGFDPWGQGTLVTVSS
VL: EIVLTQSPATLSLSPGERATLSCRASQSVSSFLAWYQQKPGQAPRLLIFDASNRATGIPARFSGSGSGTDFTLTISSLEPEDFAVYYCQQRSNWITFGQGTRLEIKRA
notes: human variable domains with mouse constant regions (Trianni mouse hybridoma); also called S0057 whole antibody
B4: S0023 (antibody, V domains shown)
VH: EVQLLESGGGLVQPGGSLRLSCAASGFTFSTFAMSWVRQAPGKGLEWVSTISGGGDSTYYADSVKGRFTISRDNSKNMMSLQMNSLRAVDTAVYYCVKGGGDEYFYYGMDVWGQGTTVTVSS
VL: DIQMTQSPSSLSASVGDRVTITCRASQGIRNDLGWYQQKPGKAPKRLIYSASSLQSGVPSRFSGSGSGTEFTLTISSLQPEDFATYYCLQHNSYPYTFGQGTPLDIKR
notes: as for B1
B5: S0040 (antibody, V domains shown)
VH: QVQLVQSGAEVKKPGASVKVSCKASGYTFTSYDINWVRQATGQGLEWMGWMNPNSGNTGYAQNFQGRVTMTRNTSINTAYMELSSLRSEDTAVYYCTRGGPTLVRGVIIRDAFDFWGQGTMVTVSS
VL: EIVMTQSPATLSVSPGERATLSCRASQSVSNSFAWYQQKPGQAPRLLIYGAFTRATGIPARFSGSGSGTEFTLTISSLQSEDFAVYYCQQYKTWPLTFGGGTKVEIKR
notes: as for B1
B6: S0103 (antibody, V domains shown)
VH: B5 VH with N73D, I76V, T97A, T102N
VL: B5 VL with T69I
notes: as for B1

The source of these data is patent US20250019432A1 (MABLYTICS, published 2025).

Where a chain is given by its changes, count along the chain named.

T1 sequence (chain, as listed by the source limits assumed): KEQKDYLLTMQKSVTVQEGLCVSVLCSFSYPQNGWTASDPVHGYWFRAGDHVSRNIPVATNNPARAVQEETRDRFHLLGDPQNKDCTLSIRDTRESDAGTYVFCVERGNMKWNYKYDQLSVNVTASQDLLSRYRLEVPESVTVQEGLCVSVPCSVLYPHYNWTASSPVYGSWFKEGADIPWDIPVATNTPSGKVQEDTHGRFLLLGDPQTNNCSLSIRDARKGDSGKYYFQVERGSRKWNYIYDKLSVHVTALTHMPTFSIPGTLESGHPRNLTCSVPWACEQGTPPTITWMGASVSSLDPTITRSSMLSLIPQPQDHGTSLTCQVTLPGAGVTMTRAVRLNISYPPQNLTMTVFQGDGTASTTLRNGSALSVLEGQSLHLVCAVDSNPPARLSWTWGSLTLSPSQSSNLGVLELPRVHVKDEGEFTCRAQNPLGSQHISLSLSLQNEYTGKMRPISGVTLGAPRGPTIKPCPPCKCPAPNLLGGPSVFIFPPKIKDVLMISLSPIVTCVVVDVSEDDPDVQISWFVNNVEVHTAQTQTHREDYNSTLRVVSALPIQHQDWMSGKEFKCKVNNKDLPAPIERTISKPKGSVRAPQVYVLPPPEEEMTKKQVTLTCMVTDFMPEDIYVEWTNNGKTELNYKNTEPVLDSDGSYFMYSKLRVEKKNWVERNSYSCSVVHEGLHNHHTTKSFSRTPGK
T8 sequence (Q9Y286 19-353): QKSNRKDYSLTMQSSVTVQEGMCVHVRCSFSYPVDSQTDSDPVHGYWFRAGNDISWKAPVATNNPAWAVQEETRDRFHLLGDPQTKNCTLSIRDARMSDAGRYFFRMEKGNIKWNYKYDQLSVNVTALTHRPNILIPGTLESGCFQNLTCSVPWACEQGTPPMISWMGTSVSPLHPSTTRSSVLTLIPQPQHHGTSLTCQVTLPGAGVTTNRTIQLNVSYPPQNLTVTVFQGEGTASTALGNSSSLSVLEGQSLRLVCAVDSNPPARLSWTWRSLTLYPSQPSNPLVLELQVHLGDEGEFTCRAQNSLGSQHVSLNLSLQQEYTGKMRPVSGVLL

The first test concerns the target T1, S12-Fc (human siglec12 extracellular domain fused with mouse Fc2a fragment) (human; mouse).
T1 construct: also called S12ecto-mouse Fc2a
Description: ELISA. The method, then: After 6 weeks of immunization, serum samples from immunized mice were screened for the presence of siglec12-specific immunoglobulins. Screening was carried out by enzyme-linked immunosorbent assay (ELISA) and by fluorescence-associated cell sorting (FACS). ELISA assays utilized assay plates coated with S12-Fc target antigen for immobilization of siglec12-specific immunoglobulins from mouse serum samples, which were detected using anti-mouse light chain (kappa and lambda) secondary antibody conjugated to horseradish peroxidase (HRP). The level of bound secondary antibody was assessed by incubation with colorimetric peroxidase substrate followed by measurement of light absorbance intensity values obtained at 450 nm. For FACS analysis, serum samples were combined with U937 cells (Fc receptor blocked with 10% human serum), an AML cell line that overexpresses human siglec12. Immunoglobulin binding to siglec12 associated with these cells is a strong indicator of potential immunotherapeutic use to treat AML. Anti-mouse heavy chain fluorescent detection reagents were used to label cell surface-bound serum immunoglobulins before FACS analysis. Lymph node and spleen cells from the three best responders were harvested and fused with P3X63Ag8.653 mouse myeloma cells. After 10-14 days of selection, the resulting hybridoma library was single-cell cloned into 96-well culture plates using FACS. After 10-14 days of single cell expansion, all monoclonal hybridoma culture supernatants were screened for S12-Fc binding immunoglobulins by ELISA. Supernatant positive for S12-Fc-binding immunoglobulins was further screened by FACS for immunoglobulin binding to U937 cells. The Table includes an antibody identification number (ID #) assigned to siglec12-binding antibodies associated with each hybridoma culture. For ELISA results, background adjusted mean absorbance values obtained at 450 nm are shown. For FACS analysis, Flow Fluor MFI is the mean fluorescence intensity from flow cytometry assay (background MFI=100) and flow % gated is the percentage of cells having greater than background fluorescence.
(In general: ELISA stands for enzyme-linked immunosorbent assay.)
In the case of B1, the A450 is 1.99.

In the case of B2, the A450 was determined as 3.34.

As for B3, the A450 amounted to 2.64.

For another test, the target named is T2, siglec8 with C-terminal FLAG tag on Expi 293 cells (UniProt Q9NYZ4 17-499, limits assumed).
T2 construct: whole, on cells; not shown: C-terminal FLAG tag
T2 sequence (Q9NYZ4 17-499 limits assumed): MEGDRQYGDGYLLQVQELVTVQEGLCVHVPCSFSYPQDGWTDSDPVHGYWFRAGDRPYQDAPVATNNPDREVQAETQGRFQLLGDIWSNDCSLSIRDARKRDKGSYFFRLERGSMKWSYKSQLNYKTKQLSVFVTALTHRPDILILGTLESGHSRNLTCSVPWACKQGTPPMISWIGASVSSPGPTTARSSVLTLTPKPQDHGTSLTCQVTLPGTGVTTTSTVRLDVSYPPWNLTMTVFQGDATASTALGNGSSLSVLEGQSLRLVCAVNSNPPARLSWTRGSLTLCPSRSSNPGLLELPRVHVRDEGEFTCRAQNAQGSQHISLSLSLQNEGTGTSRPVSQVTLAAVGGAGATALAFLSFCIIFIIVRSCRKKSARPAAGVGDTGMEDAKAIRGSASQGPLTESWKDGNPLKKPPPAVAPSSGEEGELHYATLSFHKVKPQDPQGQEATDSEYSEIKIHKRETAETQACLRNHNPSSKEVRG
The test can be described thus: flow cytometry, transfected Expi 293, 500 nM. The method, then:
(§1) To verify anti-siglec12 antibody specificity for native siglec12 (over other siglec family members), cross-reactivity analysis was carried out using flow cytometry. Expi 293 cells were grown in 6 well plates and transfected with […] of pcDNA3.1 expression vectors (Thermo Fisher Scientific, Waltham, MA) with inserts encoding siglec6, siglec7, siglec8, siglec9, or siglec12 proteins with C-terminal FLAG tags. The following day, Expi293 enhancers were added. On day 2 (post-transfection) cells were washed in PBSB and aliquoted into plastic V-bottomed plates at a density of 5×10⁵ cells/well. An aliquot was also used for Western blot analysis to confirm siglec expression (using anti-FLAG antibody as described below). Plated cells were incubated with anti-siglec12 antibodies at a concentration of 500 nM or siglec-specific control antibody (all from R&D Systems, Minneapolis, MN; Siglec6-specific clone 767329; Siglec8-specific clone 837535; Siglec9-specific clone 191240) at a concentration of 12.5 μg/mL for 2 hours on ice. Cells were then washed with ice cold PBSB and incubated with PE-goat anti mouse H/L chain secondary antibody (1:400 in PBSB) for 30 minutes on ice. Cells were again washed with ice cold PBSB and analyzed for surface staining based on fluorescence intensity determined by GUAVA® […]™ Plus flow cytometer.
(Flow cytometry measures light scatter and fluorescence of single cells or particles in a stream.)
In turn, B1 came in with an MFI of 5.3.

With B2, the MFI amounted to 7.

B4 yielded an MFI of 2.8.

On to B3, for which the MFI came out at 6.3.

The target in the next test is T3, siglec7 with C-terminal FLAG tag on Expi 293 cells (UniProt Q9Y286 19-467, limits assumed).
T3 construct: whole, on cells; not shown: C-terminal FLAG tag
T3 sequence (Q9Y286 19-467 limits assumed): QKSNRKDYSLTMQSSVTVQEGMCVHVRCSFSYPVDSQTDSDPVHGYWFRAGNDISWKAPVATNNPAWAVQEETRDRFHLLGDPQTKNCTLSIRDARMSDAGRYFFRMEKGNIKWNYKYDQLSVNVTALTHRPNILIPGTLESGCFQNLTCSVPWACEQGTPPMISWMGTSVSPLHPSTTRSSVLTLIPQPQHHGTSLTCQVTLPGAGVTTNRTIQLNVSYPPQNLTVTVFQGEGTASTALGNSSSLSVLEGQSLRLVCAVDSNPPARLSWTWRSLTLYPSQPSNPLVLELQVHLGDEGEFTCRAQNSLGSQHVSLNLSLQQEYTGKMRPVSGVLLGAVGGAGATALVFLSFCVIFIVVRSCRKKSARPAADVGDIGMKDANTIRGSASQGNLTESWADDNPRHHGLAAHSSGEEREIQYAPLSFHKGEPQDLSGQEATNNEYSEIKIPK
The test can be described thus: flow cytometry, transfected Expi 293, 500 nM. The protocol: as §1
Regarding B1, the MFI is 3.9.

Take B4: the MFI came to 2.1.

For the molecule B3, the MFI was determined as 2.8.

The target in a further test is T4, siglec9 with C-terminal FLAG tag on Expi 293 cells (UniProt Q9Y336 18-463, limits assumed).
T4 construct: whole, on cells; not shown: C-terminal FLAG tag
T4 sequence (Q9Y336 18-463 limits assumed): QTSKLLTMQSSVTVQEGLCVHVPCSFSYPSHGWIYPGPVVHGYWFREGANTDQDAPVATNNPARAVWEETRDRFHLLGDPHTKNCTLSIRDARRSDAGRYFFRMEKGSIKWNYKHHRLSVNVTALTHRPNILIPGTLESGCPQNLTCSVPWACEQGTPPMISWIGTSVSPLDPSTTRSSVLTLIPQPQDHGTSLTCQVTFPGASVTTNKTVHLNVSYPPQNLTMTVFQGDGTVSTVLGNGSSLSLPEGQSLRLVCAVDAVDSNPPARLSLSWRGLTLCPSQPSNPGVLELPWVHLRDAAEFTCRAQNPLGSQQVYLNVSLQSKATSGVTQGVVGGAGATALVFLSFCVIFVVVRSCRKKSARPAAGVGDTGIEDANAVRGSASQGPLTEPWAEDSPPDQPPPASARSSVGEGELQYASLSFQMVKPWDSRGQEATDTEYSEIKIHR
Description: flow cytometry, transfected Expi 293, 500 nM. The method, then: as §1
The molecule B1 registered an MFI of 2.3.

B4 returned an MFI of 3.

Consider B3, for which the MFI came out at 1.3.

In the next test the target is T5, S12-C2 (human, UniProt Q96PQ1 1-481).
T5 construct: also called siglec12 C2set2 region
T5 sequence: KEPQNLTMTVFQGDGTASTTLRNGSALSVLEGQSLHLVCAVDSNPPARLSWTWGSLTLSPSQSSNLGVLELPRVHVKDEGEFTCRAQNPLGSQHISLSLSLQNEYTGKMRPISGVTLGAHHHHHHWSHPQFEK
The test can be described thus: ELISA. The method, then: (§2) For ELISA assays, purified subdomain proteins were passively immobilized on assay plates and incubated with media from hybridoma cultures described above before detection of bound anti-subdomain antibodies using anti-mouse (heavy/light) secondary antibody conjugated to horseradish peroxidase (HRP). Levels of bound secondary antibody were assessed by applying colorimetric substrate and measuring absorbance values at 450 nm. Absorbance values greater than 0.07 indicate specific binding.
As for B1, the binding result is on record as “no binding (tested: A450 0.07)”.

For B2, the A450 was determined as 0.08.

For B4, the binding result was “no binding (tested: A450 0.07)”.

As to B3, the binding result was “no binding (tested: A450 0.07)”.

The target in the next test is T6, S12-V2C1 (human, UniProt Q96PQ1 1-358).
T6 construct: also called siglec12 Vset2-C2set1 region
T6 sequence (Q96PQ1 other isoform, or with tags, fused parts or gaps limits assumed): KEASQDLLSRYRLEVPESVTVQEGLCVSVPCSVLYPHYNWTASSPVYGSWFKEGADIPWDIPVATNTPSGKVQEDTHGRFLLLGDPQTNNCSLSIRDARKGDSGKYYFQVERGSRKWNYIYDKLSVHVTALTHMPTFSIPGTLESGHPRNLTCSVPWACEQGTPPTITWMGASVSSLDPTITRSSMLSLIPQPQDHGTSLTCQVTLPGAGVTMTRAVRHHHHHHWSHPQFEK
Description: ELISA. The protocol:
as §2
B1: the binding result was “no binding (tested: A450 0.07)”.

On to B2, for which the A450 came out at 1.65.

B5: the binding result is “no binding (tested: A450 0.07)”.

Consider B6, for which the binding result is reported as “no binding (tested: A450 0.07)”.

Molecule B3 came in with an A450 of 0.62.

In another test the target is T7, S12-V1 (human).
T7 construct: also called siglec12 Vset1 region
T7 sequence (chain, as listed by the source limits assumed): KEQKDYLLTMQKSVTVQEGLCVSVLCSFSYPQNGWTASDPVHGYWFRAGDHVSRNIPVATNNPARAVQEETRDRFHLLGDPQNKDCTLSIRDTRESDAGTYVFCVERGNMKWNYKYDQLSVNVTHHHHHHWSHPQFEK
Description: ELISA. The protocol: as §2
In the case of B1, the A450 amounted to 0.1.

In the case of B2, the binding result is on record as “no binding (tested: A450 0.07)”.

With B4, the binding result was “no binding (tested: A450 0.07)”.

With B5, the binding result was “no binding (tested: A450 0.07)”.

In the case of B6, the binding result is “no binding (tested: A450 0.07)”.

As for B3, the binding result is reported as “no binding (tested: A450 0.07)”.

The next test concerns the target T8, S7ecto-Fc (human siglec7 ectodomain fused with human Fc domain) (human, UniProt Q9Y286 19-353).
T8 construct: extracellular domain; bought from R&D Systems; not shown: human Fc domain
The test can be described thus: ELISA.
Turning to B3, the binding result was “no binding (tested: A450>0.09 (so in the source))”.

The target of a further test is T9, S9ecto-Fc (human siglec9 ectodomain fused with human Fc domain) (human, UniProt Q9Y336 18-348).
T9 construct: extracellular domain; bought from R&D Systems; not shown: human Fc domain
T9 sequence (Q9Y336 18-348): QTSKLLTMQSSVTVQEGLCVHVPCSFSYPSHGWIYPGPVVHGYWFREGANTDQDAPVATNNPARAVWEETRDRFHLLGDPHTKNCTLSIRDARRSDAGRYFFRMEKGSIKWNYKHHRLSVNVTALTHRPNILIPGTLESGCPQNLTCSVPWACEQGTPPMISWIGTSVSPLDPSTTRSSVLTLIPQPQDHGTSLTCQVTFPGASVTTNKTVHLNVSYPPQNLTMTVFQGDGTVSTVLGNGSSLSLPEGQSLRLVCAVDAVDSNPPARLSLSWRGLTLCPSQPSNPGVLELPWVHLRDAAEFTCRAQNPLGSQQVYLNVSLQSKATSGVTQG
The test can be described thus: ELISA. The protocol: (§3) Fusion proteins of human siglec7 or siglec9 ectodomains fused with human Fc domains (R&D Systems, Minneapolis, MN) were immobilized on assay plates and incubated with media from hybridoma cultures described above before detection of bound antibodies using anti-mouse (heavy/light) secondary antibody conjugated to HRP. Levels of bound secondary antibody were assessed by applying colorimetric substrate and measuring absorbance values at 450 nm.
Molecule B1 gave an A450 of 0.05.

Regarding B2, the A450 amounted to 0.06.

Molecule B4 returned an A450 of 0.05.

B5 registered an A450 of 0.05.

B6 came in with an A450 of 0.05.

Consider B3, for which the A450 came to 0.08.

A further test addresses T8, S7ecto-Fc (human siglec7 ectodomain …). Description: ELISA. This is another data set of the same source. The method, then:
as §3
Regarding B1, the A450 is 0.06.

B2 yielded an A450 of 0.07.

In turn, B4 gave an A450 of 0.05.

As for B5, the A450 was found to be 0.05.

B6: the A450 stood at 0.06.

B3 displayed an A450 of 0.07.
